Each block holds one substance with its values, some of them ahead of it.
How the values were obtained:
[1] = target: human FcγRI (CD64) on cells (human) (UniProt P12314); experiment: cell-based or functional assay
[2] = target: human FcγRI (CD64) on cells (human) (UniProt P12314); experiment: flow cytometry, fluorescein-conjugated antibody on monocytes
[3] = target: soluble fusion protein of the extracellular domain of human FcγRI and human IgM heavy chain (sFcγRI-µ) (human) (UniProt P12314); experiment: ELISA on captured sFcγRI-µ, against a nonspecific human IgG1 mAb

human CD64 surface expression on macrophages of CD64-transgenic mice (M32.2-FITC) [1]: < 50 % reduction
Substance: chemically linked M22 Fab' multimer M22 F(ab')3+

FcγRI expression on monocytes in whole blood (modulation assay) (% of the level prior to BsAb treatment) [1]: 50
Substance: M22 Fab' x 32.2 Fab' x M22 Fab' chemically linked trivalent antibody

antibody sites per cell (antibody sites per cell) [2]: 10000
Substance: murine anti-FcγRI monoclonal antibody M22

antibody sites per cell (antibody sites per cell) [2]: 10500
percent of binding via the Fv portion [3]: > 95%
Substance: humanized anti-FcγRI antibody H22 (KOL VH/REI Vκ mAb)

— patent EP1212366B1
